Source: patent publication US20180051079A1 (MacroGenics, published 2018)

T1: CD32B (UniProt P31994 43-217, limits assumed)
T1 construct: Only the name is printed; also called FcγRIIB
T1 sequence (looked up): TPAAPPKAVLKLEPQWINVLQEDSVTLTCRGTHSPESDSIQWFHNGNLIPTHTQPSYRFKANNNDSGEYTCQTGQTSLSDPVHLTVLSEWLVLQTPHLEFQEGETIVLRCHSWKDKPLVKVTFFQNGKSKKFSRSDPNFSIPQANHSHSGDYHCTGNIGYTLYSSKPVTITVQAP


Tests used:
Assay in all cases: assay not named in Table 4
CD32B = target: T1, CD32B
CD16A V158 = target: T2, CD16A V158 (UniProt P08637 17-208, limits assumed)
T2 construct: Only the name and allotype are printed; also called FcγRIIIA
T2 sequence (P08637 17-208 F176V limits assumed): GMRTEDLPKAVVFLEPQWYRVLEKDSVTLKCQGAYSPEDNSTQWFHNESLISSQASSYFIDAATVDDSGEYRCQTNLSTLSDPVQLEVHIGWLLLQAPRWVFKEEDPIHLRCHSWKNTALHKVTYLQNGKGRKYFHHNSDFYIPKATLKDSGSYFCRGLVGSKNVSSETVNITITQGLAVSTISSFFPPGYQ

CD16A F158 = target: T3, CD16A F158 (UniProt P08637 17-208, limits assumed)
T3 construct: Only the name and allotype are printed; also called FcγRIIIA
T3 sequence (P08637 17-208 limits assumed): as the sequence (P08637 17-208 F176V limits assumed) above, with V160F counted along it

| Molecule | binding relative to wild-type Fc (CD32B) | binding relative to wild-type Fc (CD16A V158) | binding relative to wild-type Fc (CD16A F158) |
| --- | --- | --- | --- |
| Fc variant D270E G316D R416G (other, UniProt P01857-1 104-330, looked up, domain: Fc) DKTHTCPPCPAPELLGGPSVFLFPPKPKDTLMISRTPEVTCVVVDVSHEEPEVKFNWYVDGVEVHNAKTKPREEQYNSTYRVVSVLTVLHQDWLNDKEYKCKVSNKALPAPIEKTISKAKGQPREPQVYTLPPSRDELTKNQVSLTCLVKGFYPSDIAVEWESNGQPENNYKTTPPVLDSDGSFFLYSKLTVDKSGWQQGNVFSCSVMHEALHNHYTQKSLSLSPGK | 0.78 | 2.18 | 2.49 |
| Fc variant F243L D270E G316D R416G (other, UniProt P01857-1 104-330, looked up, domain: Fc) DKTHTCPPCPAPELLGGPSVFLLPPKPKDTLMISRTPEVTCVVVDVSHEEPEVKFNWYVDGVEVHNAKTKPREEQYNSTYRVVSVLTVLHQDWLNDKEYKCKVSNKALPAPIEKTISKAKGQPREPQVYTLPPSRDELTKNQVSLTCLVKGFYPSDIAVEWESNGQPENNYKTTPPVLDSDGSFFLYSKLTVDKSGWQQGNVFSCSVMHEALHNHYTQKSLSLSPGK | 0.2 | 1.5 | 1.34 |
| Fc variant D270E P396L Q419H (other, UniProt P01857-1 104-330, looked up, domain: Fc) DKTHTCPPCPAPELLGGPSVFLFPPKPKDTLMISRTPEVTCVVVDVSHEEPEVKFNWYVDGVEVHNAKTKPREEQYNSTYRVVSVLTVLHQDWLNGKEYKCKVSNKALPAPIEKTISKAKGQPREPQVYTLPPSRDELTKNQVSLTCLVKGFYPSDIAVEWESNGQPENNYKTTPLVLDSDGSFFLYSKLTVDKSRWQHGNVFSCSVMHEALHNHYTQKSLSLSPGK | 0.68 | 1.64 |  |
| Fc variant F243L P247L D270E N421K (other, UniProt P01857-1 104-330, looked up, domain: Fc) DKTHTCPPCPAPELLGGPSVFLLPPKLKDTLMISRTPEVTCVVVDVSHEEPEVKFNWYVDGVEVHNAKTKPREEQYNSTYRVVSVLTVLHQDWLNGKEYKCKVSNKALPAPIEKTISKAKGQPREPQVYTLPPSRDELTKNQVSLTCLVKGFYPSDIAVEWESNGQPENNYKTTPPVLDSDGSFFLYSKLTVDKSRWQQGKVFSCSVMHEALHNHYTQKSLSLSPGK | 0.32 | 2.3 | 3.45 |
| Fc variant D270E K392T P396L (other, UniProt P01857-1 104-330, looked up, domain: Fc) DKTHTCPPCPAPELLGGPSVFLFPPKPKDTLMISRTPEVTCVVVDVSHEEPEVKFNWYVDGVEVHNAKTKPREEQYNSTYRVVSVLTVLHQDWLNGKEYKCKVSNKALPAPIEKTISKAKGQPREPQVYTLPPSRDELTKNQVSLTCLVKGFYPSDIAVEWESNGQPENNYTTTPLVLDSDGSFFLYSKLTVDKSRWQQGNVFSCSVMHEALHNHYTQKSLSLSPGK | 0.79 | 1.81 | 2.28 |
| Fc variant F243I R292P Y300L V305I P396L (other, UniProt P01857-1 104-330, looked up, domain: Fc; Written as printed (F243I); may be a misprint of F243L) DKTHTCPPCPAPELLGGPSVFLIPPKPKDTLMISRTPEVTCVVVDVSHEDPEVKFNWYVDGVEVHNAKTKPPEEQYNSTLRVVSILTVLHQDWLNGKEYKCKVSNKALPAPIEKTISKAKGQPREPQVYTLPPSRDELTKNQVSLTCLVKGFYPSDIAVEWESNGQPENNYKTTPLVLDSDGSFFLYSKLTVDKSRWQQGNVFSCSVMHEALHNHYTQKSLSLSPGK | 1.05 |  | 3.12 |
| Fc variant F243L R292P V305I (other, UniProt P01857-1 104-330, looked up, domain: Fc; also called Mutant 13*) DKTHTCPPCPAPELLGGPSVFLLPPKPKDTLMISRTPEVTCVVVDVSHEDPEVKFNWYVDGVEVHNAKTKPPEEQYNSTYRVVSILTVLHQDWLNGKEYKCKVSNKALPAPIEKTISKAKGQPREPQVYTLPPSRDELTKNQVSLTCLVKGFYPSDIAVEWESNGQPENNYKTTPPVLDSDGSFFLYSKLTVDKSRWQQGNVFSCSVMHEALHNHYTQKSLSLSPGK |  | 2.56 | 1.43 |
| Fc variant F243L P247L N421K (other, UniProt P01857-1 104-330, looked up, domain: Fc) DKTHTCPPCPAPELLGGPSVFLLPPKLKDTLMISRTPEVTCVVVDVSHEDPEVKFNWYVDGVEVHNAKTKPREEQYNSTYRVVSVLTVLHQDWLNGKEYKCKVSNKALPAPIEKTISKAKGQPREPQVYTLPPSRDELTKNQVSLTCLVKGFYPSDIAVEWESNGQPENNYKTTPPVLDSDGSFFLYSKLTVDKSRWQQGKVFSCSVMHEALHNHYTQKSLSLSPGK | 0.17 | 1.89 | 1.71 |
| Fc variant F243L D270E K392T P396L (other, UniProt P01857-1 104-330, looked up, domain: Fc) DKTHTCPPCPAPELLGGPSVFLLPPKPKDTLMISRTPEVTCVVVDVSHEEPEVKFNWYVDGVEVHNAKTKPREEQYNSTYRVVSVLTVLHQDWLNGKEYKCKVSNKALPAPIEKTISKAKGQPREPQVYTLPPSRDELTKNQVSLTCLVKGFYPSDIAVEWESNGQPENNYTTTPLVLDSDGSFFLYSKLTVDKSRWQQGNVFSCSVMHEALHNHYTQKSLSLSPGK | 0.44 | 3.16 | 2.44 |
| Fc variant F243L R255L D270E P396L (other, UniProt P01857-1 104-330, looked up, domain: Fc) DKTHTCPPCPAPELLGGPSVFLLPPKPKDTLMISLTPEVTCVVVDVSHEEPEVKFNWYVDGVEVHNAKTKPREEQYNSTYRVVSVLTVLHQDWLNGKEYKCKVSNKALPAPIEKTISKAKGQPREPQVYTLPPSRDELTKNQVSLTCLVKGFYPSDIAVEWESNGQPENNYKTTPLVLDSDGSFFLYSKLTVDKSRWQQGNVFSCSVMHEALHNHYTQKSLSLSPGK | 0.38 | 1.75 | 1.64 |
| Fc variant F243L D270E P396L Q419H (other, UniProt P01857-1 104-330, looked up, domain: Fc) DKTHTCPPCPAPELLGGPSVFLLPPKPKDTLMISRTPEVTCVVVDVSHEEPEVKFNWYVDGVEVHNAKTKPREEQYNSTYRVVSVLTVLHQDWLNGKEYKCKVSNKALPAPIEKTISKAKGQPREPQVYTLPPSRDELTKNQVSLTCLVKGFYPSDIAVEWESNGQPENNYKTTPLVLDSDGSFFLYSKLTVDKSRWQHGNVFSCSVMHEALHNHYTQKSLSLSPGK | 0.26 | 1.46 | 1.15 |

Results, then the molecule that gave them:

| binding relative to wild-type Fc (CD32B) | binding relative to wild-type Fc (CD16A V158) | binding relative to wild-type Fc (CD16A F158) | Molecule |
| --- | --- | --- | --- |
| 0.37 | 1.14 | 1.37 | Fc variant V284M R292P K370N (from UniProt P01857 104-330) |
| 0.58 | 1.89 | 2.46 | Fc variant P247L D270E N421K (other, UniProt P01857-1 104-330, looked up, domain: Fc) DKTHTCPPCPAPELLGGPSVFLFPPKLKDTLMISRTPEVTCVVVDVSHEEPEVKFNWYVDGVEVHNAKTKPREEQYNSTYRVVSVLTVLHQDWLNGKEYKCKVSNKALPAPIEKTISKAKGQPREPQVYTLPPSRDELTKNQVSLTCLVKGFYPSDIAVEWESNGQPENNYKTTPPVLDSDGSFFLYSKLTVDKSRWQQGKVFSCSVMHEALHNHYTQKSLSLSPGK |
| 0.87 | 1.34 | 1.65 | Fc variant R255L D270E P396L (other, UniProt P01857-1 104-330, looked up, domain: Fc) DKTHTCPPCPAPELLGGPSVFLFPPKPKDTLMISLTPEVTCVVVDVSHEEPEVKFNWYVDGVEVHNAKTKPREEQYNSTYRVVSVLTVLHQDWLNGKEYKCKVSNKALPAPIEKTISKAKGQPREPQVYTLPPSRDELTKNQVSLTCLVKGFYPSDIAVEWESNGQPENNYKTTPLVLDSDGSFFLYSKLTVDKSRWQQGNVFSCSVMHEALHNHYTQKSLSLSPGK |
| 0.4 | 5.37 | 2.53 | Fc variant F243L R292P V305I P396L (other, UniProt P01857-1 104-330, looked up, domain: Fc; also called Mutant 17) DKTHTCPPCPAPELLGGPSVFLLPPKPKDTLMISRTPEVTCVVVDVSHEDPEVKFNWYVDGVEVHNAKTKPPEEQYNSTYRVVSILTVLHQDWLNGKEYKCKVSNKALPAPIEKTISKAKGQPREPQVYTLPPSRDELTKNQVSLTCLVKGFYPSDIAVEWESNGQPENNYKTTPLVLDSDGSFFLYSKLTVDKSRWQQGNVFSCSVMHEALHNHYTQKSLSLSPGK |
| 1.07 | 10.1 | 5.62 | Fc variant F243L R292P Y300L P396L (other, UniProt P01857-1 104-330, looked up, domain: Fc; also called Mutant 16) DKTHTCPPCPAPELLGGPSVFLLPPKPKDTLMISRTPEVTCVVVDVSHEDPEVKFNWYVDGVEVHNAKTKPPEEQYNSTLRVVSVLTVLHQDWLNGKEYKCKVSNKALPAPIEKTISKAKGQPREPQVYTLPPSRDELTKNQVSLTCLVKGFYPSDIAVEWESNGQPENNYKTTPLVLDSDGSFFLYSKLTVDKSRWQQGNVFSCSVMHEALHNHYTQKSLSLSPGK |
| 0.87 | 1.52 | 1.74 | Fc variant R255L D270E Y300L P396L (other, UniProt P01857-1 104-330, looked up, domain: Fc) DKTHTCPPCPAPELLGGPSVFLFPPKPKDTLMISLTPEVTCVVVDVSHEEPEVKFNWYVDGVEVHNAKTKPREEQYNSTLRVVSVLTVLHQDWLNGKEYKCKVSNKALPAPIEKTISKAKGQPREPQVYTLPPSRDELTKNQVSLTCLVKGFYPSDIAVEWESNGQPENNYKTTPLVLDSDGSFFLYSKLTVDKSRWQQGNVFSCSVMHEALHNHYTQKSLSLSPGK |
| 1.38 | 10.1 | 8.25 | Fc variant F243L R292P Y300L V305I P396L (other, UniProt P01857-1 104-330, looked up, domain: Fc; also called Mutant 18) DKTHTCPPCPAPELLGGPSVFLLPPKPKDTLMISRTPEVTCVVVDVSHEDPEVKFNWYVDGVEVHNAKTKPPEEQYNSTLRVVSILTVLHQDWLNGKEYKCKVSNKALPAPIEKTISKAKGQPREPQVYTLPPSRDELTKNQVSLTCLVKGFYPSDIAVEWESNGQPENNYKTTPLVLDSDGSFFLYSKLTVDKSRWQQGNVFSCSVMHEALHNHYTQKSLSLSPGK |
| 0.65 |  |  | Fc variant R255L D270E R292G P396L (other, UniProt P01857-1 104-330, looked up, domain: Fc) DKTHTCPPCPAPELLGGPSVFLFPPKPKDTLMISLTPEVTCVVVDVSHEEPEVKFNWYVDGVEVHNAKTKPGEEQYNSTYRVVSVLTVLHQDWLNGKEYKCKVSNKALPAPIEKTISKAKGQPREPQVYTLPPSRDELTKNQVSLTCLVKGFYPSDIAVEWESNGQPENNYKTTPLVLDSDGSFFLYSKLTVDKSRWQQGNVFSCSVMHEALHNHYTQKSLSLSPGK |
